Assay results from patent publication US20090011997A1 (THERATECHNOLOGIES, published 2009).
Bridge positions count the residues as written; N and C are the ends. Square brackets hold non-standard residues; d marks the D form. Ends that are not written are not given here. Nle = CCCC[C@H](N)C(=O)O

B1: bifunctional hormone of SEQ ID NO: 41 (peptide)
peptide: Ac-EHFRWGRRSSCFGGRMDRIGAQSGLGCNSFRY-NH2
modifications: disulfide 11-27
SMILES: CC[C@H](C)[C@@H]1NC(=O)[C@H](CCCNC(=N)N)NC(=O)[C@H](CC(=O)O)NC(=O)[C@H](CCSC)NC(=O)[C@H](CCCNC(=N)N)NC(=O)CNC(=O)CNC(=O)[C@H](Cc2ccccc2)NC(=O)[C@@H](NC(=O)[C@H](CO)NC(=O)[C@H](CO)NC(=O)[C@H](CCCNC(=N)N)NC(=O)[C@H](CCCNC(=N)N)NC(=O)CNC(=O)[C@H](Cc2c[nH]c3ccccc23)NC(=O)[C@H](CCCNC(=N)N)NC(=O)[C@H](Cc2ccccc2)NC(=O)[C@H](Cc2c[nH]cn2)NC(=O)[C@H](CCC(=O)O)NC(C)=O)CSSC[C@@H](C(=O)N[C@@H](CC(N)=O)C(=O)N[C@@H](CO)C(=O)N[C@@H](Cc2ccccc2)C(=O)N[C@@H](CCCNC(=N)N)C(=O)N[C@@H](Cc2ccc(O)cc2)C(N)=O)NC(=O)CNC(=O)[C@H](CC(C)C)NC(=O)CNC(=O)[C@H](CO)NC(=O)[C@H](CCC(N)=O)NC(=O)[C@H](C)NC(=O)CNC1=O
B2: bifunctional hormone of SEQ ID NO: 43 (peptide)
peptide: Ac-HRWGKPMCFGGRMDRIGAQSGLGCNSFRY-NH2
modifications: disulfide 8-24
SMILES: CC[C@H](C)[C@@H]1NC(=O)[C@H](CCCNC(=N)N)NC(=O)[C@H](CC(=O)O)NC(=O)[C@H](CCSC)NC(=O)[C@H](CCCNC(=N)N)NC(=O)CNC(=O)CNC(=O)[C@H](Cc2ccccc2)NC(=O)[C@@H](NC(=O)[C@H](CCSC)NC(=O)[C@@H]2CCCN2C(=O)[C@H](CCCCN)NC(=O)CNC(=O)[C@H](Cc2c[nH]c3ccccc23)NC(=O)[C@H](CCCNC(=N)N)NC(=O)[C@H](Cc2c[nH]cn2)NC(C)=O)CSSC[C@@H](C(=O)N[C@@H](CC(N)=O)C(=O)N[C@@H](CO)C(=O)N[C@@H](Cc2ccccc2)C(=O)N[C@@H](CCCNC(=N)N)C(=O)N[C@@H](Cc2ccc(O)cc2)C(N)=O)NC(=O)CNC(=O)[C@H](CC(C)C)NC(=O)CNC(=O)[C@H](CO)NC(=O)[C@H](CCC(N)=O)NC(=O)[C@H](C)NC(=O)CNC1=O
B3: bifunctional hormone of SEQ ID NO: 44 (peptide)
peptide: Ac-H[dF]RWGKPMCFGGRMGAQSGLGCNSFRY-NH2
modifications: disulfide 9-22
SMILES: CSCC[C@@H]1NC(=O)[C@H](CCCNC(=N)N)NC(=O)CNC(=O)CNC(=O)[C@H](Cc2ccccc2)NC(=O)[C@@H](NC(=O)[C@H](CCSC)NC(=O)[C@@H]2CCCN2C(=O)[C@H](CCCCN)NC(=O)CNC(=O)[C@H](Cc2c[nH]c3ccccc23)NC(=O)[C@H](CCCNC(=N)N)NC(=O)[C@@H](Cc2ccccc2)NC(=O)[C@H](Cc2c[nH]cn2)NC(C)=O)CSSC[C@@H](C(=O)N[C@@H](CC(N)=O)C(=O)N[C@@H](CO)C(=O)N[C@@H](Cc2ccccc2)C(=O)N[C@@H](CCCNC(=N)N)C(=O)N[C@@H](Cc2ccc(O)cc2)C(N)=O)NC(=O)CNC(=O)[C@H](CC(C)C)NC(=O)CNC(=O)[C@H](CO)NC(=O)[C@H](CCC(N)=O)NC(=O)[C@H](C)NC(=O)CNC1=O
B4: bifunctional hormone of SEQ ID NO: 45 (peptide)
peptide: Ac-H[dF]RWSPKMVQGSGCPGRKMDRISSSSGLGCKVLRRH-NH2
modifications: disulfide 14-30
SMILES: CC[C@H](C)[C@@H]1NC(=O)[C@H](CCCNC(=N)N)NC(=O)[C@H](CC(=O)O)NC(=O)[C@H](CCSC)NC(=O)[C@H](CCCCN)NC(=O)[C@H](CCCNC(=N)N)NC(=O)CNC(=O)[C@@H]2CCCN2C(=O)[C@@H](NC(=O)CNC(=O)[C@H](CO)NC(=O)CNC(=O)[C@H](CCC(N)=O)NC(=O)[C@@H](NC(=O)[C@H](CCSC)NC(=O)[C@H](CCCCN)NC(=O)[C@@H]2CCCN2C(=O)[C@H](CO)NC(=O)[C@H](Cc2c[nH]c3ccccc23)NC(=O)[C@H](CCCNC(=N)N)NC(=O)[C@@H](Cc2ccccc2)NC(=O)[C@H](Cc2c[nH]cn2)NC(C)=O)C(C)C)CSSC[C@@H](C(=O)N[C@@H](CCCCN)C(=O)N[C@H](C(=O)N[C@@H](CC(C)C)C(=O)N[C@@H](CCCNC(=N)N)C(=O)N[C@@H](CCCNC(=N)N)C(=O)N[C@@H](Cc2c[nH]cn2)C(N)=O)C(C)C)NC(=O)CNC(=O)[C@H](CC(C)C)NC(=O)CNC(=O)[C@H](CO)NC(=O)[C@H](CO)NC(=O)[C@H](CO)NC(=O)[C@H](CO)NC1=O
B5: bifunctional hormone of SEQ ID NO: 46 (peptide)
peptide: Ac-H[dF]RWGPKPVQGSGCPGRKMDRISSSSGLGCKVLRRH-NH2
modifications: disulfide 14-30
SMILES: CC[C@H](C)[C@@H]1NC(=O)[C@H](CCCNC(=N)N)NC(=O)[C@H](CC(=O)O)NC(=O)[C@H](CCSC)NC(=O)[C@H](CCCCN)NC(=O)[C@H](CCCNC(=N)N)NC(=O)CNC(=O)[C@@H]2CCCN2C(=O)[C@@H](NC(=O)CNC(=O)[C@H](CO)NC(=O)CNC(=O)[C@H](CCC(N)=O)NC(=O)[C@@H](NC(=O)[C@@H]2CCCN2C(=O)[C@H](CCCCN)NC(=O)[C@@H]2CCCN2C(=O)CNC(=O)[C@H](Cc2c[nH]c3ccccc23)NC(=O)[C@H](CCCNC(=N)N)NC(=O)[C@@H](Cc2ccccc2)NC(=O)[C@H](Cc2c[nH]cn2)NC(C)=O)C(C)C)CSSC[C@@H](C(=O)N[C@@H](CCCCN)C(=O)N[C@H](C(=O)N[C@@H](CC(C)C)C(=O)N[C@@H](CCCNC(=N)N)C(=O)N[C@@H](CCCNC(=N)N)C(=O)N[C@@H](Cc2c[nH]cn2)C(N)=O)C(C)C)NC(=O)CNC(=O)[C@H](CC(C)C)NC(=O)CNC(=O)[C@H](CO)NC(=O)[C@H](CO)NC(=O)[C@H](CO)NC(=O)[C@H](CO)NC1=O
B6: bifunctional hormone of SEQ ID NO: 29 (peptide)
peptide: [Nle]EHFGGR[Nle]DRISKYRH[dF]RW-NH2
modifications: lactam 2-13; N-terminus assumed
SMILES: CCCC[C@@H]1NC(=O)[C@H](CCCNC(=N)N)NC(=O)CNC(=O)CNC(=O)[C@H](Cc2ccccc2)NC(=O)[C@H](Cc2c[nH]cn2)NC(=O)[C@@H](NC(=O)[C@@H](N)CCCC)CCC(=O)NCCCC[C@@H](C(=O)N[C@@H](Cc2ccc(O)cc2)C(=O)N[C@@H](CCCNC(=N)N)C(=O)N[C@@H](Cc2c[nH]cn2)C(=O)N[C@H](Cc2ccccc2)C(=O)N[C@@H](CCCNC(=N)N)C(=O)N[C@@H](Cc2c[nH]c3ccccc23)C(N)=O)NC(=O)[C@H](CO)NC(=O)[C@H]([C@@H](C)CC)NC(=O)[C@H](CCCNC(=N)N)NC(=O)[C@H](CC(=O)O)NC1=O

Assays:
[1] = target: ANP receptor (on ANP receptor-expressing LLC-PK1 cells); test: cell-based or functional assay
[2] = target: MCR1 receptor (on MCR1 receptor-expressing B16-F1 cells) (UniProt Q01727 1-315); test: cell-based or functional assay
Sequence of MCR1 receptor (on MCR1 receptor-expressing B16-F1 cells) (Q01727 whole entry): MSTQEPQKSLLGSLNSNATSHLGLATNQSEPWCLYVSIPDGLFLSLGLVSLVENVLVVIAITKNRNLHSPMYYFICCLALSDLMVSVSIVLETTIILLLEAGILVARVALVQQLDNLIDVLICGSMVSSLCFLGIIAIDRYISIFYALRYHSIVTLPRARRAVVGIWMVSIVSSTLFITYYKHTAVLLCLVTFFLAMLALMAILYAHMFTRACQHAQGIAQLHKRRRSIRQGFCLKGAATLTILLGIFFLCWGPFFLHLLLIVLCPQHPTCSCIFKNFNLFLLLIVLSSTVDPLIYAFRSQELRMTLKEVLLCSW

| Binder | EC50 on the production of cGMP (LLC-PK1 cells) [1] | EC50 on the production of cAMP (BC16-F1 cells) [2] |
| --- | --- | --- |
| B1 | 8.9 nM |  |
| B2 | 86.8 nM |  |
| B3 |  | 1.2 nM |
| SLRRSSCFGGRMDRIGAQSGLGCNSFRY (disulfide 7-23; also: C-terminal amide in Table IV, not in Table I) [native ANP (SEQ ID NO: 2)] | 3.3 nM |  |
| B4 |  | 365 nM |
| B5 |  | 28 nM |
| B6 | 1430 nM |  |
